According to PMC9763423:

Biological target: JOSD1 (UniProt Q15040)
Assay: co-immunoprecipitation, immunoblot
Settings: reference: Flag-MCL1 WT; sites S159

- binding against the reference: stronger
Substance: MCL-1 (from UniProt Q07820) Flag-MCL1 S159A
